Source: patent publication US5039791A, “Peptide fragments of tissue plasminogen activator” (Monsanto Company, priority 1989, dated 1991)
Where no end group is shown, it is not given here.

Columns and labels:
[1] = biological target: T1, fibrin (Homo sapiens, UniProt P02671+P02675+P02679); assay: Fibrin binding: binding of tPA to fibrin, tPA antigen in supernatant by ELISA; conditions: 15 μg/ml peptide; 200 ng/ml single chain melanoma tPA, 200 μg/ml human fibrinogen; no peptide = 48
T1 construct: purchased Kabi Vitrum
T1 sequence (P02671 20-644 isoform P02671-2 limits assumed): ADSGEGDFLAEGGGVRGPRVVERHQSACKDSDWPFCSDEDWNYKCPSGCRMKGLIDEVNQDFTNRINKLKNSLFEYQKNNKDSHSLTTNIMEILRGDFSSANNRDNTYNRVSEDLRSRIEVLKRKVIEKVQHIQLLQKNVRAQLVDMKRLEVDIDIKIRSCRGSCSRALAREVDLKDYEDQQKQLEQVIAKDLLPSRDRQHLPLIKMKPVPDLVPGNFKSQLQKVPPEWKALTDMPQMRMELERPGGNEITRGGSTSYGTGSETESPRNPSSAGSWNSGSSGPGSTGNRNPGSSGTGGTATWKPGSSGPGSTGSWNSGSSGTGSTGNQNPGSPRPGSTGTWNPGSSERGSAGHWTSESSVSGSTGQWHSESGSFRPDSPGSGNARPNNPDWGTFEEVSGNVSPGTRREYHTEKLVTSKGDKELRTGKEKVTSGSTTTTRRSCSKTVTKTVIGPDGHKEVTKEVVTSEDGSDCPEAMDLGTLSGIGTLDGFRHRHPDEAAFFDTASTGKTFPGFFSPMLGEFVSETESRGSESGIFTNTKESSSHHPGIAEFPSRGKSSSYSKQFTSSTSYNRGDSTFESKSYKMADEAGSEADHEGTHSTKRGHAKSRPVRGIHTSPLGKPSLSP
T1 sequence (P02675 45-491 limits assumed): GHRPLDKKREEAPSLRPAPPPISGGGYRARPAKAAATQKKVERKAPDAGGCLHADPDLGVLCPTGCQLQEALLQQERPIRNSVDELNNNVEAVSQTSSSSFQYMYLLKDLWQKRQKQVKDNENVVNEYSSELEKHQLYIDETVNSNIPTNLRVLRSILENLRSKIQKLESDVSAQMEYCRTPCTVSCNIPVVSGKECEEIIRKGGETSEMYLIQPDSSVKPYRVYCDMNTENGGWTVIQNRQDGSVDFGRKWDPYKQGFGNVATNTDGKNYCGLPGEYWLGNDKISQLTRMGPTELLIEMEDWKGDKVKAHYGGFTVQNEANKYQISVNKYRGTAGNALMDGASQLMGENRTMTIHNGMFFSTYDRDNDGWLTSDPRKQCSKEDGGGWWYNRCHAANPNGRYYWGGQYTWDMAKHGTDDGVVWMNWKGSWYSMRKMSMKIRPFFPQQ
T1 sequence (P02679 27-437 isoform P02679-2 limits assumed): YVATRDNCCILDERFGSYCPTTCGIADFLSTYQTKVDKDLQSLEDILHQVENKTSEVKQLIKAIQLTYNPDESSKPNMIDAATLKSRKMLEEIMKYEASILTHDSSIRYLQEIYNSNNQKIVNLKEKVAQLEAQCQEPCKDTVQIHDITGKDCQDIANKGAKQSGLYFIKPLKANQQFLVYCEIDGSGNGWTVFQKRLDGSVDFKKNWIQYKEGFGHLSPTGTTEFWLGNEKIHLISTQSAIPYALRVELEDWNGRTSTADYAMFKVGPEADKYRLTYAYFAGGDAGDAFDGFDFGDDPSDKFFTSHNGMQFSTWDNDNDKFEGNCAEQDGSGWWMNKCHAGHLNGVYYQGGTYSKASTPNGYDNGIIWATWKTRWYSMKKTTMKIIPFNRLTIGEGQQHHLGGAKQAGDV
Experimental: Binding of tPA to fibrin was measured using the conventional method of Rijken et al., J. Biol. Chem. 257, 2920-2925 (1982). This method involves mixing thrombin with a solution containing tPA and fibrinogen, centrifuging the resulting clot and measuring the concentration of tPA antigen in the supernatant. In a final volume of 200 μl, the following were combined: 200 ng/ml single chain melanoma tPA, 200 μg/ml human fibrinogen, 15 μg/ml tPA peptide, 1.1 mg/ml bovine serum albumin, 0.55 mg/ml bovine gamma globulin and 10 mM ε-amino caproic acid in PBSAT. Controls omitted fibrinogen, peptide or both. Mixtures were clotted by the addition of 1 unit/ml bovine thrombin, incubated one hour at room temperature and centrifuged. tPA antigen in the supernatant was measured by conventional ELISA and the percentage bound calculated by difference using the antigen level of a control mixture with no fibrinogen as 0% bound. […] An ELISA assay kit for tPA and PAI-1 was purchased from American Diagnostica Inc. and assays were performed according to printed protocols supplied by the manufacturer with the kit except that a single lot of melanoma tPA from American Diagnostica Inc. (product 111, lot 47-01) was used as the antigen standard throughout this work and 5.0 mg/ml of BSA and 2.5 mg/ml of bovine gamma globulin were included in ELISA buffers.

[2] = biological target: T2, PAI-1 (Homo sapiens, UniProt P05121); assay: PAI-1 inhibition studies: protection of tPA from inactivation by PAI-1, residual tPA enzymatic activity by indirect amidolytic assay; type: biochemical; conditions: 1.5 μg/ml PAI-1, 50 ng/ml tPA; for maintenance of tPA activity in the presence of PAI-1 (FIG. 1): 100 μg/ml peptide, one hour at 37° C.; for effect of peptide concentration on the maintenance of tPA activity in the presence of PAI-1 (FIG. 2): several peptide concentrations (30-120 μg/ml)
T2 construct: purchased American Diagnostica, Inc
T2 sequence (P05121 24-402): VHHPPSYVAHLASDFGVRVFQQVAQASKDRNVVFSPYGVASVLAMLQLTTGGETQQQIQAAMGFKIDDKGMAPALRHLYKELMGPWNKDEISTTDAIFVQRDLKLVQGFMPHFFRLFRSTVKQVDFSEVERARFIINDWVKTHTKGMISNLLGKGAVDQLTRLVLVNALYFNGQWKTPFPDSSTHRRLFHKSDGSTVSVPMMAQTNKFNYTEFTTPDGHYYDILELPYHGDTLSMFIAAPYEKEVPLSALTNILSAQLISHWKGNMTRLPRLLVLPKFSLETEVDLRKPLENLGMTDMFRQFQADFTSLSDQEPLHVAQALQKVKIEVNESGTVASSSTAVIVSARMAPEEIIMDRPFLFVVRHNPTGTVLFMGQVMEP
Experimental: In each case, peptide and PAI-1 were first mixed, followed by the addition of tPA. Final concentrations were: 100 μg/ml peptide, 1.5 μg/ml PAI-1 and 50 ng/ml tPA in phospate buffered saline containing 0.01% sodium azide and 0.01% Tween 80%. After incubation for one hour at 37° C., samples were examined for remaining tPA enzymatic activity. The error bars represent the range of duplicate measurements of the tPA enzymatic activity in μAU/min/min.
Results are expressed as the percentage of tPA enzymatic activity remaining after incubation with tPA, PAI-1 and peptide relative to that seen with tPA alone.
An indirect amidolytic assay for tPA activity was performed by a conventional method as described by Ranby and Wallen, Prog. Fibrinolytics 5, 233-235 (1981) and Ranby, Biochim. Biophys. Acta 740, 461-469 (1982) but with the following modifications. The assay mixture contained 50 μg/ml human glu-plasminogen, 1 mM plasmin substrate S-2251, 130 μg/ml fibrinogen fragment stimulator, and 0 to 20 ng/ml tPA sample in phosphate-buffered saline containing 0.01% sodium azide and 0.01% Tween 80 (PBSAT) in a final volume of 100 μl. The assay was performed in a 96-well microtitration plate at room temperature. Reaction mixtures were overlaid with 50 μl mineral oil to prevent evaporation. Periodic readings were taken at 405 nm and referenced at 650 nm using a Molecular Devices Vmax plate reader. The first derivative of absorbance with respect to time was calculated and the slope of a plot of dA/dt vs time was proportional to tPA activity. Results were expressed in absorbance units (μ AU/min^2) or as a percentage of control.
The effect of peptides on the inactivation of tPA by PAI-1 was measured by incubating 1.5 μg/ml PAI-1, 30-120 μg/ml peptide and 50 ng/ml tPA in PBSAT. PAI-1 and peptide were first mixed, followed by the addition of tPA. After one hour at 37° C., residual tPA enzymatic activity was measured either immediately or after the samples had been frozen and stored.
tPA was incubated with increasing concentrations of PAI-1 for one hour at 37° C. and the incubate was then assayed for residual tPA enzymatic activity.

Substance | % Bound (binding of tPA to fibrin) [1] | maintenance of tPA activity in the presence of PAI-1 (FIG. 1) [2] | effect of peptide concentration on the maintenance of tPA activity in the presence of PAI-1 (FIG. 2) [2]
LGKHNYCRNPDGDAKPWCHVLKNRR-amide (LGKHNYCRNPDGDAKPWCHVLKNRR-NH2; cysteine pairing not given here) [Peptide 166, 25 amino acid synthetic peptide amide fragment of native human tPA] | 57% | no effect | no effect
NPDRDSKPWCYVFKAGKYSSEFCST-amide (NPDRDSKPWCYVFKAGKYSSEFCST-NH2; cysteine pairing not given here) [Peptide 158, 25 amino acid synthetic peptide amide fragment of native human tPA] | 53% | active but with a lesser effect | steady, progressive increase in activity
VPVKSCSEPRCFNGGTCQQALYFSD-amide (VPVKSCSEPRCFNGGTCQQALYFSD-NH2; cysteine pairing not given here) [Peptide 148, 25 amino acid synthetic peptide amide fragment of native human tPA] | 50% | especially effective at maintaining tPA activity | rose dramatically and plateaued
